Results as given in a protein production outcome set (Wang et al. 2014).

Test: label from the status in PepcDB records

Sequence | protein production
ARLVQLSRHSIAFPSPEGALREPNGLLALGGDLSPARLLMAYQRGIFPWFSPGDPILWWSPDPRAVLWPESLHISRSMKRFHKRSPYRVTMNYAFGQVIEGCASDREEGTWITRGVVEAYHRLHELGHAHSIEVWREDELVGGMYGVAQGTLFCGESMFSRMENASKTALLVFCEEFIGHGGKLIDCQVLNDHTASLGACEIPRRDYLNYLNQMRLGRLPNNFWVPRCLFSPQE | not failed
MTTVSPDDSSPSTLTSLTFDDLTPGQSASLSRTLTQADLDLFATVSGNIDPSHFADPPAGTTLFPKAIGHGMWSASLISGVLGTRLPGPGTVYLAQDLRFRAPVTLGDTITASVTVREKRTERKTVVFECLCTNQNGVTVVSGTAEVIAPATHASVAAQALPGLQMIRHDRQAALLARCAGLPALPTAVIHPCDGPALQGAVEAAQRGLIEPILVGPSLLIAATAKALGLDISAFRLVEAANGAAAAATGVALVRAGEARAVMKGALHTDELMAAVVKRDGGLRTAGRISHVFLMTVPTYPKPLLITDAVVNIAPSLEDKVHIVQNAIDLARILGVETPKVAILSAVETINPKISSTVDAAALCKMAQRGQIRGGLLDGPLAFDNAISAEAAKTKGIVSEVAGQADILLVPDLESGNMLAKQLSFLAHADAAGIVLGTSAPVMLTSRADNLAARLASCALAVLIDAASRPRSTVLAAE | failed
VSDMNGLGFKPFDLVIPFAVRKGEITGEVHMPSGKTATPEIVDNKDGTVTVRYAPTEVGLHEMHIKYMGSHIPESPLQFYVNYPNSGS | not failed
VSKAVQYMAKRRIGALIVFEKETGLQDYIETGIPMNSDISQELLTNVFIPNTPLHDGAMIIQGSKIAVAASYLPLSDSVKISKSLGTRHRAAVGISEVSDAFTVVVSEETGDISVTFDGKLRRDISKDVFEELLAEHWFGAHFQKKGVNS | not failed
MLETLHLTPLDRWIDAWLAHQRALGRAYDNEGWILGHLRRFIVSSEAGDLDQKGFDRWCASLRHLSPTTRRGRQFVVRKLCLFRRRAEPGCFVPDSIYFARKLPYRRPVILEPAQVSRMLAAADGLAPTTNSPLLPAVMRLATIILYTAGLRRGELARLTLDDVEPQSGLLRIRQSKFHKSRLVPLSPDAAGALRTYLHLRLAPSFNADPSSALLCCGRAGRRGYTGAGLGQAINRLFVTADVRDSEGRLPRVHDIRHSFGVQALIRWYRAGADVQSCLPSLAIYMGHVSVVSTAHYLHFVPTMRELASSRFEAAFGNIVVEAKP | failed
MTSLEEITKAIMADSQNKVFTEKNIEPLFAAPKTARINIVGQAPGIKAQESRLYWNDKSGDRLREWMGVDYDTFYHSGYFAVIPMDFYYPGKGKSGDLPPRKGFAQKWHQPILDLLPDIQLTILIGNYAQKYYLHQKSSVKLTDTVAHYKKYLPDYFPLVHPSPRNQIWMSRHPWFEAQVVPDLKKIIQQIIQSS | not failed
MKLLLALMLFMTFFAHAADPEPGSQYLQAAEAGDRRAQYFLADSWLSYGDLNKAEYWAQKAADSGDADACALLAQIKITNPVSLDYPDAKKLAEKAANAGSKVGEITLARILVNTQAGRPDYPKAISLLQKASEDLDNDSAVDAQMLLGLIYANGVGIAADDEKAAWYFKRSSAISRTGYSEYWAGMMFLNGEPGFIEKNKQKALHWLNLSCLEGFDTGCEEFETLTNG | failed
MRDATYPQLWAAVRAARKAGRTLESVKPAADQFQVKHNGDIVTEADRTVEETILAELSGQFPVHTVVSEESAPEFTTKPRWIIDPIDGTTNFLNGIPHYSISIAFEGAGEPDVGIVYHVPSETMYTAIEGGGAYANGQPLSLSATTELSEALIVTGFDTASMQAQEYDHFRTILNVTQGVRRFGSAAGELAMVAAGQFDAFFERQLSVWDTAAGVKIVEEAGGEVTRIKALDGKNSEMVLASNEAIHQDLVALVSAGTVPKMDGQ | failed
MTRTEYLAELDKYLRKLPREDYHEAMEYYIEYFDEAGPDKESQVIDDLGNPKEAASEIISNVLGKHLATPEKTPKNRATIIGLTILSLFAAPIALPVLLALILFIIACLMLGLTAIFAAYIFGLAGILVAGVTLFESLTLIGSSIPAQAMGIGSALLCFGGGLLIWIIATAFLRFSGRAFVAFIKWISNKKGAQA | failed
MSDPLTAQEQHKRRQAVRELMPRTPFIGGLGIVFERYEPDDVVIRLPFRTDLTNDGTYFHGGVIASVMDTAGAAAAWSNHDFDRGTRAATVAMSIQYTGAAKRCDLLCHARTARRRKELTFTEITATDPDGNIVAHAVQTYRIVLEHHHHHH | failed
MHIKSAIIVVSDRISTGTRENKALPLLQRLMSDELQDYSYELISEVVVPEGYDTVVEAIATALKQGARFIITAGGTGIRAKNQTPEATASFIHTRCEGLEQQILIHGSTHTHLAGLSRGIVGVTGRDDHAALIVNAPSSSGGITDTWAVISPVIPNIFEGLDAS | not failed
MDELAGGGGGGQGMAAPPRPQQGPGGNLSLPPGANGAPGGGGPPAAEAAGPPAGPELSRPQQYTIPGILHYIQHEWARFEMERAHWEVERAELQARIAFLQGERKGQENLKKDLVRRIKMLEYALKQERAKYHKLKYGTELNQGDLKMPTFESEETKDVEAPPAPQNSQLTWKQGRQLLRQYLQEVGYTDTILDVRSQRVRSLLGLSNSEPNGSVEAKNLEQILNGGESPKQKGQEIKRPPGDVLETFNFLENADDSDEEENDMIEGIPEGKDKLRIHKHKIGNEGLAADLTDDPDTEEALKEFDFLVTAEDGEGAGEARSSGDGTEWDKDDLSPTAEVWDVDQGLISKLKEQYKKERKGKKGVKRVNRTNLCDMITDLGDDELPHIPSGIINQSRSASTRMADHEGARAEEAEPITFPSGGGKSFIMGSDDVLLSVLGLGDLADLTVTNDADYSYDLPANKDAFRKTWNPKYTLRSHFDGVRALAFHPVEPVLVTASEDHTLKLWNLQKTVPAKKSASLDVEPIYTFRAHIGPVLSLAISSNGEQCFSGGIDATIQWWNMPSPNVDPYDTYESNVLAGTLVAHTDAVWGLAYSGIKNQLLSCSADGTIRLWNPQEKLPCVCTYNGDKEHGIPTSVDFIGCDPAHMVTSFNTGSAVIYDLETSQSLVMLSSQVDSGLQSSNHINRVVSHPTLPVTITAHEDRHIKFFDNKTGKMIHSMVAHLDAVTSLAVDPNGIYLMSGSHDCSIRLWNLDSKTCVQEITAHRKKLDESIYDVAFHPSKAYIASAGADALAKVFV | failed
MSINISELLQPITEQSPCGEDYSFSNEFHLIKKARTQDDVLLDQGDWVTELKQADWETVTSTSSNLLKTKTKDIRLLTWLSEGWANLYGFEGIYQGIELSHRLLDQFWNDIHPVVEDDDLDQRIALLQGLINQLPLLIKKTPLINTSPYYHLLNYENFLHHQNIRRKQSDEYEQLDGPSEIELFEQALFNTSKSFQYQNYQMFKHVVSQWQQLKDVLDRLMGVDAPSFAAIDSSLQDIDVNLRKIYKAEAFDTNPVATSSATASSHASETLSTEPMPTSNVNVNQPSFQPQTQNHIQNREQAIRVLQDISDYFQANEPHSPVSYMLQKTIKWSQMPLHEWLAQVIKDEHPLQLVQEALGVQPKNEYE | failed
MLTVEPSEIQLTPGPILSLYLDLAGHLNWHIRSNLYLRGAEPRLDQKDPAAAAILELSLRLGSAPGGSVSCCWVTVSPGRMSVIDHVRDMAAAGLHSNVRLLSSLLLTMSNNNPELFSPSQKYQLLVYHADSLFHDKEYRNAVSKYTMALQQKKALSKTSKCLPSEIEVKYKMAECYTMLKLDKDAIAILDGIPSRQRTPKINMMLANLYKKAGQERPSVTSYKEVLRQCPLALDAILGLLSLSVKGAEVASMTMNVIQTVPNLDWLSVWIKAYAFVHTGDNSRAINTICSLEKKSLLRDNVDLLGSLADLYFRAGDNKNSVLKFEQAQMLDPYLIKGMDVYGYLLAREGRLEDVENLGCRLFNISDQHAEPWVVSGCHSFYSKRYSRALYLGAKAIQLNSNSVQALLLKGAALRNMGRVQEAIIHFREAIRLAPCRLDCYEGLIECYLASNSIREAMVMANNVYKTLGANAQTLTLLATVCLEDPVTQEKAKTLLDKALAQRPDYVKAVVKKAELLSREQKYEDGIALLRNALANQSDCVLHRILGDFLVSVNEYQEAMDQYSIALSLDPNDQKSLEGMQKMEKEGSPTDATQEDDVDDMEGSGEEGDLEGSDSEAAQWADQEQWFGMQ | failed
MPDSPLPLYHKVYLLLKQRLQSGGFALNAAMPGENALAAEYGVSRLTIRRSLEALESEGLIERRQGRGTFAAEGAILSAPQHSADIDTLMAHLARMGMHTQVNLLELDTVPATPQVAAQLELPAGAPVQRAVRVRSHQGLPFSYLVTYVPGEIGQRIRREDLGAKPLLAIFRDLGVRVARAQQSISAVLAEPGTAGALDVPVGSALLSLQRLVRDDAGRPVEWLHALYRPDRYEYRLDMQAHDTPGQPTWLPAGAPRRA | failed
MRFTNTILMTTFTALLAVALVAGCASKKKDETDPFFSKWQSLASNSTGFSPPKVVRDVKPKTLLRQEEVTAKQEEQKRPLPQMPVTLKLHNVDVGVALRSLAAAANTSIIVSPGVKGTASINVNRVPWEDVFKGILASNALDFAWRGELIQVMTLADKKAEVERELLETQRMAQQLKGRKVGPLVTSVIEVRYAEAAELKKNLEGFLSKDEQNKPVGAVVVDTHTNSLIVQAVEDDLSKIITLVNNLDKPRAQILLKAHIVEATRDTARDLGIQWGGVGRSGNMGDGNRMWVTPGGSGPTKPTDPQAGGGVPVIPPGGLSGQGFGMNFPVNKAGKTAMGSLGLMFGTIGGNMLEVQLSALQDNGKLNILSSPSISTLDNQMAFTENGEKVPYVSTNAQGDREVKFEDAVLRLEITPHVIDESNLKLKVQVKKDEVDLTRTVEGNPFIIKKQTETTLIVQDGETVVISGLTKERSSTRRQGLPYLQDVEGIGALFGNDSKANKLEDVLIFITPAILPYREETSVN | failed
GSSGSSGMQLEIQVALNFIISYLYNKLPRRRVNIFGEELERLLKKKYEGHWYPEKPYKGSGFRCIHIGEKVDPVIEQASKESGLDIDDVRGNLPQDLSVWIDPFEVSYQIGEKGPVKVLYVDDNSGPSSG | not failed
MYNKTILESQHTLIPMPSTSTNAQPTLAKQLFTMTWPMLFGVLSLMSFQLVDSAFIGQLGVLPLAAQGFTLPLQMVIIGIQVGLGIATTAVISKALGANDARYAKQLGGLVLMIGSIGVAVFGLLIWLLRYPILSLLSAPETVMPIIDSYWPWWLLSSWAGAVLYFYYSICRANGNTMLPGTMMMVTSGVNLVLDPLFIFTLDLGINGAALATLVAFGFGILVVAPRVKRNHWATTQWQDLNVMKSVTSIGNIMGPAMVSQLLPPLSSMLATKLLASFGTAAVAAWALGSRYEFFAIVSVLALTMSMPPMVGRLLGAKNYRDIQSLVGIAVKFILGFQLLIAAITFLLANPLALLMTSDTQVEQVLHMHLMIVPISLGSLGVCMLMVSICNALGKSYTALTISALRLFVFFLPCLWLGAQLDGIRGLLFGACVGNIMAGISAYLTYRKTIHKLAIKQATA | failed
MRPVYFLSDFGLEDPYVAVVKAVLAERAPGPAVVDLAHALPPQDLRRAAYALFEALPYLPEGAVVLAVVDPGVGTARRAVAALGRWTYVGPDNGLFTLAWLLDPPRRAFLLEPPRPRPKAALPGWAPGEATFHGRDVFAPAAAHLALGLPPEGLGPEVPVETLARLPLALTEGPEGEVLTFDRFGNAITTLLRAPVGGFVEVGGRRVPVRRTFGEVPEGAPVAYLGSAGLLEVAVNRGSAREALGLKEGMPVRLL | not failed
MGKALLIVNPSSGKEKGKTYQGKTEEVLKKRYDEVEVRLTEKAGDATEFASWASEQGFDAVIAMGGDGTLNETINGLAIHEKRPDFGFIPLGTVNDLARSVGIPLKPEKAIQALEKAKAIPMDIGRIGDQYFMNVLAIGMIAQAVDQVSVEQKTKFGSVAYFLEGLKAFNRNELLHFKLEYDEEVWEGEAALVVAGLTKSVGGMESWAPDAKIDDGYLHVVVLTKLGLLDAANMIPQLIRGNLKNSDGVVYIKTKKLTIDASGDDLSINVDGDPGPGVPAEIEVLGSHLNILAPKKSSQKRFGPFILKK | failed
